Assay [1] has as its target T1, human β-catenin (Leu218-Leu781) mutant His 470 to alanine, Gal-4 activation domain fusion (human, UniProt P35222 218-781).
T1 sequence: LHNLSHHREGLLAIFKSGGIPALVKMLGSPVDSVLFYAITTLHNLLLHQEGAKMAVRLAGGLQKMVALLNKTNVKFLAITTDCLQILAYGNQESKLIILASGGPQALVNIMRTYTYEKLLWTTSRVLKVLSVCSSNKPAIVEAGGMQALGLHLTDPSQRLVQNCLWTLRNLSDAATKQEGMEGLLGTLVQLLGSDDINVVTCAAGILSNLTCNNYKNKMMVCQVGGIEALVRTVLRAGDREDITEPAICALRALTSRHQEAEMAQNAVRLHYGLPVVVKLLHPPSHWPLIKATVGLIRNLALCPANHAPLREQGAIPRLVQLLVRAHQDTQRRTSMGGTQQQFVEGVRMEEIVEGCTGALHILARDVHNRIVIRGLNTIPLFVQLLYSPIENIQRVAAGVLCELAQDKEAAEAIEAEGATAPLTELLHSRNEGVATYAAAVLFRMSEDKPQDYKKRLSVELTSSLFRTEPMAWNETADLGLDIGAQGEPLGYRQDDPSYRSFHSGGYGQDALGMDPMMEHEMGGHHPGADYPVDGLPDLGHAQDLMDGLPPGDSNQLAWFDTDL
In words: yeast 2-hybrid. How it is done: (§1) 4. Preparation and testing of mutants of β-catenin modulating the interaction with LEF-1, APC, conductin or E-cadherin The mutagenesis of β-catenin in the armadillo repeats 3–8 was carried out by means of the "mutagenesis kit" of the company Clontech according to the producer's record and the mutants were checked by sequencing (FIG. 5). In all mutants the original amino acid was substituted by alanine. For analyzing the interactions the cDNA of human β-catenin (armadillo repeat 3 up to the C-terminal end of the protein) coding for the amino acids Leu218–Leu7 µl or its mutants was cloned into the fusion vector for the activation domain of Gal-4 (pGAD424, Clontech). The cDNA for the binding domains of the interaction partners was cloned into the Lex-A fusion vector BTM 116. To this end, the cDNA of LEF-1 for the amino acids 1–99, conductin for the amino acids Ala342–ARG465; of human APC for the amino acids His1012–Glu1215 (APC 15 amino acid repeats) and for the amino acids Ser1259Asp 1400 (APC 20 amino acid repeats) and E-cadherin for the amino acids Gin773–Asp884 (cytoplasmatic domain) were amplified with the respective primers PCR. The interaction of the Lex-A hybrids with β-catenin and its mutants was quantified by means of the β-galactosidase reporter activity in the yeast 2-hybrid system (report: "Matchmaker". Clontech) (Tab. 2 and FIG. 6).

Assay [2] concerns the target T2, human β-catenin (Leu218-Leu781) mutant Phe 253 to alanine, Gal-4 activation domain fusion (human, UniProt P35222 218-781).
T2 sequence: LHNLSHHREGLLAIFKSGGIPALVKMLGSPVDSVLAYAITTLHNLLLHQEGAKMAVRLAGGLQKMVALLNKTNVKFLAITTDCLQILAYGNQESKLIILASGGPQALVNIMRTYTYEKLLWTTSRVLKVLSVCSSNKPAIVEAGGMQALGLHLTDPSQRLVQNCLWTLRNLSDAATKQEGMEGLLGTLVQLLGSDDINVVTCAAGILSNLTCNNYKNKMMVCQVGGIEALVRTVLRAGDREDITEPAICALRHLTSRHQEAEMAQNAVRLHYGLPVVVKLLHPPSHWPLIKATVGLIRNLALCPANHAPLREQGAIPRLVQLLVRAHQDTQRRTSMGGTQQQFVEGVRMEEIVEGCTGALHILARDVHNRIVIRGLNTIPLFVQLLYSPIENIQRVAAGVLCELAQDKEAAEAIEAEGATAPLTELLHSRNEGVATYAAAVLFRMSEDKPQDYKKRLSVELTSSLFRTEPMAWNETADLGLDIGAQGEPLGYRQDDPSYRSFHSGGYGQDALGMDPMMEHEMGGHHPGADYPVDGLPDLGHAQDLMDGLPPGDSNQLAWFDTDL
In words: yeast 2-hybrid; - means 60-100% of the wild type interaction. The procedure: as §1

Assay [3] has as its target T3, human β-catenin (Leu218-Leu781) mutant Lys 292 to alanine, Gal-4 activation domain fusion (human, UniProt P35222 218-781).
T3 sequence: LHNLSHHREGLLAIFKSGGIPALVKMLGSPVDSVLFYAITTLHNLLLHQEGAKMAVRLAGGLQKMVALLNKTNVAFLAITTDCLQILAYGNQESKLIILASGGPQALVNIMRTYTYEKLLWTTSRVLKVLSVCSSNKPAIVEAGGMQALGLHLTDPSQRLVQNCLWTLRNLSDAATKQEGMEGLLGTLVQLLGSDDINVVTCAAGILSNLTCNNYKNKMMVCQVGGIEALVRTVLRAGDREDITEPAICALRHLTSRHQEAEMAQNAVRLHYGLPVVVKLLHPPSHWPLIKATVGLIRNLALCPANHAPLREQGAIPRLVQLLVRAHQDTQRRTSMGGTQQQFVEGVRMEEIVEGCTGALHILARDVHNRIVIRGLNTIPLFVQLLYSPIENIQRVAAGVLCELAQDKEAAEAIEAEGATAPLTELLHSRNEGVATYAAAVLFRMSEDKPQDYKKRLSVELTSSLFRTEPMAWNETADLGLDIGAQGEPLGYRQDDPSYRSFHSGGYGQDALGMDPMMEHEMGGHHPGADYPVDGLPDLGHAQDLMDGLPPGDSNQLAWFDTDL
Described as above. How it is done:
as §1

In assay [4] the target is T4, human β-catenin (Leu218-Leu781) mutant Arg 457 to alanine, Gal-4 activation domain fusion (human, UniProt P35222 218-781).
T4 sequence: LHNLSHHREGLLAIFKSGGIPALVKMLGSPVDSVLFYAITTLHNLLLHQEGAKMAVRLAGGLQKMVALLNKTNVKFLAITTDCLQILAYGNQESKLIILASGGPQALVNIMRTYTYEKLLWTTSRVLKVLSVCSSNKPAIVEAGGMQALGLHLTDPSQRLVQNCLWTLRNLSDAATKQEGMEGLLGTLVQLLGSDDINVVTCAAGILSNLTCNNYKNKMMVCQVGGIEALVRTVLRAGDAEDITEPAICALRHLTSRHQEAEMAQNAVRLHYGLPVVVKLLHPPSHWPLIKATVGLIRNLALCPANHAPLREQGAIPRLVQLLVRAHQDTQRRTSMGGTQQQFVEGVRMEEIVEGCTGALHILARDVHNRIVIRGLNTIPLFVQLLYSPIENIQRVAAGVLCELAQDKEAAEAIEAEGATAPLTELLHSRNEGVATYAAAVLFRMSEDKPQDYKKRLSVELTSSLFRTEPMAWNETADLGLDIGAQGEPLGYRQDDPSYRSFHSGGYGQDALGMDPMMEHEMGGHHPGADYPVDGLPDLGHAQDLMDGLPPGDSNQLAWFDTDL
The description is as above. The procedure: as §1

B1: LEF-1 amino acids 1-99 fused to Lex-A (vector BTM 116) (other, UniProt P0A7C2 1-202, looked up)
chain: MKALTARQQEVFDLIRDHISQTGMPPTRAEIAQRLGFRSPNAAEEHLKALARKGVIEIVSGASRGIRLLQEEEEGLPLVGRVAAGEPLLAQQHIEGHYQVDPSLFKPNADFLLRVSGMSMKDIGIMDGDLLAVHKTQDVRNGQVVVARIDDEVTVKRLKKQGNKVELLPENSEFKPIVVDLRQQSFTIEGLAVGVIRNGDWLMPQLSGGGGGGDPELCATDEMIPFKDEGDPQKEKIFAEISHPEEEGDLADIKSSLVNESEIIPASNGHEVVRQAPSSQEPYHDKAREHPDEGKHPDGGL
notes: Order of the fusion follows the vector; also called LEF-1/TCF-4
Take B1: the binding result was “no binding” in assay [1], “binds” in assay [2], “binds” in assay [3] and “binds” in assay [4].

(Values after patent US7067474B1, “Agents for treating human illnesses based on β-catenin, and the production and use thereof” (Max-Delbruck-Centrum fur Molekulare Medizin, priority 1998, dated 2006).)
